Measurements: PMC10847417

Key:
[1] = molecular target: HA-PKM2 (wild type), expressed in 293T cells (human) (UniProt P14618); test: SEC; cell lysates (A549, H1299 or transfected 293T; with shCIP2A, pCDH-CIP2A or Flag-CIP2A) on Superdex 200 Increase 10/300 GL, 50 mM sodium phosphate, 0.15 M NaCl, pH 7.2; fractions analysed by western blot; both exogenous and endogenous PKM2 included
[2] = molecular target: purified recombinant WT PKM2 expressed in bacteria (human) (UniProt P14618); test: SEC; purified recombinant WT, S287A and S287D PKM2 expressed in bacteria; size exclusion chromatography with molecular mass standards
[3] = molecular target: pyruvate kinase M2 (PKM2), endogenous (human (endogenous in A549 and H1299)) (UniProt P14618); test: cross-linking; H1299 cell lysates (with Flag-CIP2A or siCIP2A) treated with 0.01% glutaraldehyde at 37 °C for 9 min, SDS-PAGE, western blot with anti-PKM2

Chain of pyruvate kinase M2 (PKM2), endogenous, P14618 1-531 (enzyme; other documents disagree on this pair) (P14618 whole entry): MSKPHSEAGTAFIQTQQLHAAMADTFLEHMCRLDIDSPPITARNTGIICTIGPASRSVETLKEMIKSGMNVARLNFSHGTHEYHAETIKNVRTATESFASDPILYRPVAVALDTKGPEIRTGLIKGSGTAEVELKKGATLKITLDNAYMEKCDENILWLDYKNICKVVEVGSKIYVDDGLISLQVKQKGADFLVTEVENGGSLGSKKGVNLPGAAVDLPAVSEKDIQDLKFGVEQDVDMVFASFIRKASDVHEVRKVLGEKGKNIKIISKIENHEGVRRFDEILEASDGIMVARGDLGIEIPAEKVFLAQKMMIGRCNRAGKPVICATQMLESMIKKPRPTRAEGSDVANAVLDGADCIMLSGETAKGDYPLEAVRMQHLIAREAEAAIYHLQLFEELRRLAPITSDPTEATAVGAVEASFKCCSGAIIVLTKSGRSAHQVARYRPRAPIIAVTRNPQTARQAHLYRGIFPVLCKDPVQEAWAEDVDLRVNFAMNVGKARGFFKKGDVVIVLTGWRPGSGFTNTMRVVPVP
Chain of HA-PKM2 (wild type), expressed in 293T cells, P14618 1-531 (enzyme; other documents disagree on this pair) (P14618 whole entry): as above
Chain of purified recombinant WT PKM2 expressed in bacteria, P14618 1-531 (enzyme; other documents disagree on this pair) (P14618 whole entry): as above

Substance “HA-PKM2 (wild type), expressed in 293T cells, P14618 1-531 (enzyme; other documents disagree on this pair)” has a stoichiometry N [1] of 2.

In the case of “purified recombinant WT PKM2 expressed in bacteria, P14618 1-531 (enzyme; other documents disagree on this pair)”, the stoichiometry N [2] was 2.

Work on “pyruvate kinase M2 (PKM2), endogenous, P14618 1-531 (enzyme; other documents disagree on this pair)” yielded a stoichiometry N [3] of 2.
